Test results published in article PMC12279200, “Tumor‐Associated Glycan Exploits Adenosine Receptor 2A Signaling to Facilitate Immune Evasion” (Advanced Science, 2025).
Residue numbers refer to the chain shown, from its start. Numbers in names are those of the source.

B1: translin‐associated factor‐X (TRAX), endogenous (natural protein, UniProt Q99598 1-290, looked up)
chain: MSNKEGSGGFRKRKHDNFPHNQRREGKDVNSSSPVMLAFKSFQQELDARHDKYERLVKLSRDITVESKRTIFLLHRITSAPDMEDILTESEIKLDGVRQKIFQVAQELSGEDMHQFHRAITTGLQEYVEAVSFQHFIKTRSLISMDEINKQLIFTTEDNGKENKTPSSDAQDKQFGTWRLRVTPVDYLLGVADLTGELMRMCINSVGNGDIDTPFEVSQFLRQVYDGFSFIGNTGPYEVSKKLYTLKQSLAKVENACYALKVRGSEIPKHMLADVFSVKTEMIDQEEGIS
notes: translin-associated factor X (TRAX), endogenous in human primary CD4+ T cells and in Jurkat cells; source: endogenous, human primary CD4+ T cell lysate; endogenous, Jurkat (Jurkat-vector) lysate
B2: recombinant TRAX (His‐tagged) (natural protein, UniProt Q99598 1-290, looked up)
chain: B1 chain
notes: translin-associated factor X (TRAX); source: Escherichia coli, His‐tagged recombinant protein
B3: FLAG‐tagged TRAX^(Q219A, Q223A) (natural protein, UniProt Q99598 1-290, looked up)
chain: B1 chain with Q219A, Q223A
notes: translin-associated factor X (TRAX) with Q219A and Q223A; also called mutTRAX‐FLAG; mutTRAX; source: Jurkat cells, lentivirus (Jurkat‐mutTRAX‐FLAG), in lysate
B4: adenosine receptor 2A (A2AR), endogenous (receptor, UniProt P29274 1-412, looked up)
chain: MPIMGSSVYITVELAIAVLAILGNVLVCWAVWLNSNLQNVTNYFVVSLAAADIAVGVLAIPFAITISTGFCAACHGCLFIACFVLVLTQSSIFSLLAIAIDRYIAIRIPLRYNGLVTGTRAKGIIAICWVLSFAIGLTPMLGWNNCGQPKEGKNHSQGCGEGQVACLFEDVVPMNYMVYFNFFACVLVPLLLMLGVYLRIFLAARRQLKQMESQPLPGERARSTLQKEVHAAKSLAIIVGLFALCWLPLHIINCFTFFCPDCSHAPLWLMYLAIVLSHTNSVVNPFIYAYRIREFRQTFRKIIRSHVLRQQEPFKAAGTSARVLAAHGSDGEQVSLRLNGHPPGVWANGSAPHPERRPNGYALGLVSGGSAQESQGNTGLPDVELLSHELKGVCPEPPGLDDPLAQDGAGVS
notes: adenosine receptor 2A (A2AR), endogenous in human primary CD4+ T cells and in Jurkat cells; also called A2a receptor; source: endogenous, human primary CD4+ T cell lysate; endogenous, Jurkat (Jurkat-vector and Jurkat-mutTRAX-FLAG) lysate

Legend:
[1] = target: B4; assay: co-IP; human primary CD4+ T cells incubated with 30 µM GHCer or PBS at 37 °C for 1 h; immunoprecipitation with anti‐A2AR or anti‐TRAX, western blot with anti‐TRAX or anti‐A2AR; details: partners not purified
[2] = target: B4; assay: co-IP; Jurkat‐vector or Jurkat‐mutTRAX‐FLAG cells incubated with 30 µM GHCer or PBS at 37 °C for 1 h; immunoprecipitation with anti‐A2AR, anti‐TRAX or anti‐FLAG, western blot; details: partners not purified
[3] = target: T1, A2AR fragment F (aa 291–412) (UniProt P29274 291-412); assay: Luminex bead-based assay; A2AR‐His full length or fragments captured on Luminex beads conjugated with anti‐His antibody; TRAX in solution, detected by antibody and PE-conjugated antibody; with PBS, 30 µM GHCer or 30 µM GH‐biotin; PBS with 1% BSA, 37 °C, 60 min; signals normalised to full‐length A2AR/PBS/TRAX; details: both partners purified
T1 construct: adenosine receptor 2A (A2AR), C-terminal fragment F, aa 291–412; source: Escherichia coli, His‐tagged recombinant protein

[4] = target: T2, A2AR fragment E (aa 291–393) (UniProt P29274 291-393); assay: as above; details: both partners purified
T2 construct: adenosine receptor 2A (A2AR), C-terminal fragment E, aa 291–393; source: Escherichia coli, His‐tagged recombinant protein

[5] = target: T3, full‐length recombinant A2AR protein (A2AR‐His, fragment A) (UniProt P29274 1-412); assay: as above; details: both partners purified
T3 construct: adenosine receptor 2A (A2AR), full-length (fragment A); the printed end of fragment F (aa 412) fits the human protein; captured on beads by an anti-His antibody; also called full‐length N‐His‐A2AR; A2AR‐full length; source: Escherichia coli, His‐tagged recombinant protein; not shown: His, N-terminal, kept

[6] = target: B1; assay: co-IP; human primary CD4+ T cells incubated with 30 µM GHCer or PBS at 37 °C for 1 h; immunoprecipitation with anti‐A2AR or anti‐TRAX, western blot with anti‐TRAX or anti‐A2AR; details: partners not purified
[7] = target: B3; assay: co-IP; Jurkat‐vector or Jurkat‐mutTRAX‐FLAG cells incubated with 30 µM GHCer or PBS at 37 °C for 1 h; immunoprecipitation with anti‐A2AR, anti‐TRAX or anti‐FLAG, western blot; details: partners not purified
[8] = target: B1; assay: as above; details: partners not purified

B1
fold TRAX co-precipitated with GHCer over PBS control [1]: 2.1 fold
fold TRAX co-precipitated with GHCer over PBS control [2]: 2.3 fold

B2
fold binding signal with GHCer over fragment A without GHCer [3]: 1.8 fold
fold binding signal with GHCer over fragment A without GHCer [4]: 2.3 fold
fold binding signal with 30 µM GHCer over PBS control [5]: 1.6 fold
fold binding signal with GHCer over fragment A without GHCer [5]: 1.5 fold

B3
fold co-precipitated by anti‐A2AR with GHCer over PBS control [2]: 1 fold

B4
fold A2AR co-precipitated with GHCer over PBS control [6]: 1.8 fold
fold co-precipitated by anti‐FLAG with GHCer over PBS control [7]: 1.1 fold
fold A2AR co-precipitated with GHCer over PBS control [8]: 2 fold
